Test results: patent US20250084158A1 (ABL BIO, published 2025)

B1: 33C2/CD3-R3 (bispecific antibody, human IgG1, kappa, N297A)
heavy 1: not shown
heavy 2: QVQLVQSGAEVKKPGASVKVSCKASGYSFTGYAMNWVRQAPGQRLEWIGLINPYNGGAMYNQKFKGRATLTVDTSASTAYMELSSLRSEDTAVYYCARDYRYEGHLDYWGQGTLVTVSSASTKGPSVFPLAPSSKSTSGGTAALGCLVKDYFPEPVTVSWNSGALTSGVHTFPAVLQSSGLYSLSSVVTVPSSSLGTQTYICNVNHKPSNTKVDKKVEPKSCDKTHTCPPCPAPELLGGPSVFLFPPKPKDTLMISRTPEVTCVVVDVSHEDPEVKFNWYVDGVEVHNAKTKPREEQYASTYRVVSVLTVLHQDWLNGKEYKCKVSNKALPAPIEKTISKAKGQPREPQVCTLPPSREEMTKNQVSLSCAVKGFYPSDIAVEWESNGQPENNYKTTPPVLDSDGSFFLVSKLTVDKSRWQQGNVFSCSVMHEALHNHYTQKSLSLSPGK
light 1: EIVLTQSPATLSLSPGERATLSCSATSSVSYMHWYQQKPGQAPRRWIYDTSKLASGIPARFSGSGSGTSYTLTISSLEPEDFAVYYCQQWSSDSPTFGQGTKLEIKRTVAAPSVFIFPPSDEQLKSGTASVVCLLNNFYPREAKVQWKVDNALQSGNSQESVTEQDSKDSTYSLSSTLTLSKADYEKHKVYACEVTHQGLSSPVTKSFNRGEC
light 2: DIVMTQSPDSLAVSLGERATINCKSSQSLLNSRTRKNYLAWYQQKPGQPPKLLIYWASTRQSGVPDRFSGSGSGTDFTLTISSLQAEDVAVYYCTQSHTLRTFGGGTKVEIKPDIQNPDPAVYQLRDSKSSDKSVCLFTDFDSQTQVSQSKDSDVYITDKCVLDMRSMDFKSNSAVAWSQKSDFACANAFQNSIIPEDTFFPSPESS
notes: As 33C2/CD3-R2 but with the (G4S)3 linker; also called anti-CLL-1/anti-CD3 bispecific antibody with (G4S)3 linker
B2: 33C2/CD3-R2 (bispecific antibody, human IgG1, kappa, N297A)
heavy 1: not shown
heavy 2: QVQLVQSGAEVKKPGASVKVSCKASGYSFTGYAMNWVRQAPGQRLEWIGLINPYNGGAMYNQKFKGRATLTVDTSASTAYMELSSLRSEDTAVYYCARDYRYEGHLDYWGQGTLVTVSSASTKGPSVFPLAPSSKSTSGGTAALGCLVKDYFPEPVTVSWNSGALTSGVHTFPAVLQSSGLYSLSSVVTVPSSSLGTQTYICNVNHKPSNTKVDKKVEPKSCDKTHTCPPCPAPELLGGPSVFLFPPKPKDTLMISRTPEVTCVVVDVSHEDPEVKFNWYVDGVEVHNAKTKPREEQYASTYRVVSVLTVLHQDWLNGKEYKCKVSNKALPAPIEKTISKAKGQPREPQVCTLPPSREEMTKNQVSLSCAVKGFYPSDIAVEWESNGQPENNYKTTPPVLDSDGSFFLVSKLTVDKSRWQQGNVFSCSVMHEALHNHYTQKSLSLSPGK
light 1: EIVLTQSPATLSLSPGERATLSCSATSSVSYMHWYQQKPGQAPRRWIYDTSKLASGIPARFSGSGSGTSYTLTISSLEPEDFAVYYCQQWSSDSPTFGQGTKLEIKRTVAAPSVFIFPPSDEQLKSGTASVVCLLNNFYPREAKVQWKVDNALQSGNSQESVTEQDSKDSTYSLSSTLTLSKADYEKHKVYACEVTHQGLSSPVTKSFNRGEC
light 2: DIVMTQSPDSLAVSLGERATINCKSSQSLLNSRTRKNYLAWYQQKPGQPPKLLIYWASTRQSGVPDRFSGSGSGTDFTLTISSLQAEDVAVYYCTQSHTLRTFGGGTKVEIKPDIQNPDPAVYQLRDSKSSDKSVCLFTDFDSQTQVSQSKDSDVYITDKCVLDMRSMDFKSNSAVAWSQKSDFACANAFQNSIIPEDTFFPSPESS
notes: WuXiBody format, 2+1: Heavy Chain-1 = CLL1 Fab heavy, linker, CD3 heavy (TCR constant region), Fc knob; Heavy Chain-2 = CLL1 Fab heavy, Fc hole; Two CLL1 light chains follow from the two CLL1 Fab heavy parts; also called anti-CLL-1/anti-CD3 bispecific antibody with (G4S)2 linker

Key:
human CLL-1 on cells [1] = biological target: T1, human CLL-1 on cells (human, UniProt Q5QGZ9 1-265); experiment: cell-based or functional assay
T1 sequence (looked up): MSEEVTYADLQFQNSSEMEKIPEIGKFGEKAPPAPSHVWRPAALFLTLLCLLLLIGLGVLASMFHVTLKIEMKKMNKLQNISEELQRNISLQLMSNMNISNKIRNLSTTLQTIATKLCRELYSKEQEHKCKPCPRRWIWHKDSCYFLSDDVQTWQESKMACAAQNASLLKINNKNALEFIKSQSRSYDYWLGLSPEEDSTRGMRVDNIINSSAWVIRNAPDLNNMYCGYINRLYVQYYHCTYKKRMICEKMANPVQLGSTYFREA

human CLL-1 on cells [2] = biological target: T1, human CLL-1 on cells; experiment: cell-based or functional assay; remark: listed apart in the source
human CLL-1 on cells [3] = biological target: T1, human CLL-1 on cells; experiment: cell-based or functional assay; remark: listed apart in the source
human CLL-1 on cells [4] = biological target: T1, human CLL-1 on cells; experiment: cell-based or functional assay; remark: listed apart in the source
human CLL-1 on cells [5] = biological target: T1, human CLL-1 on cells; experiment: FACS (PE-anti-human IgG), U937 cells
Procedure: (§1) To evaluate the tumor antigen binding property of the bispecific antibody of Example 3, the binding ability of CLL1 targeting portions of 33C2/CD3-R2 and 33C2/CD3-R3 to CLL1 expressed in mammalian cells were analyzed by using FACS.
(§2) Briefly, CLL1 positive cells (U937 and HL60) were incubated with 33C2/CD3-R2 and 33C2/CD3-R3 antibodies. After washing with a FACS buffer (1% BSA in PBS), the PE-anti-human IgG antibodies were added to each well and incubated at 4° C. for 60 min. The MFI (Median Fluorescence Intensity) of PE (phycoerythrin) was evaluated by FACS Calibur. BsAb mock/CD3, which has an anti-CD3 antigen-binding fragment at one arm, and no antigen-binding fragment at another arm, was used as a control group.

human CLL-1 on cells [6] = biological target: T1, human CLL-1 on cells; experiment: FACS (PE-anti-human IgG), HL-60 cells
Procedure: as §1, §2

Binder | T-cell activation (NFAT reporter effector cells) with HL-60, EC50 (human CLL-1 on cells [1]) [pM] | T-cell activation (NFAT reporter effector cells) with U937, EC50 (human CLL-1 on cells [1]) [pM] | CD25 on CD4 T cells, HL60 targets, EC50 (human CLL-1 on cells [2]) [pM] | CD25 on CD8 T cells, HL60 targets, EC50 (human CLL-1 on cells [2]) [pM] | CD69 on CD4 T cells, HL60 targets, EC50 (human CLL-1 on cells [2]) [pM] | CD69 on CD8 T cells, HL60 targets, EC50 (human CLL-1 on cells [2]) [pM] | U937 cell lysis (so in the source); Table 21 is the HL60 table by paragraph 356), EC50 (human CLL-1 on cells [2]) [pM] | CD25 on CD4 T cells, U937 targets, EC50 (human CLL-1 on cells [3]) [pM] | CD25 on CD8 T cells, U937 targets, EC50 (human CLL-1 on cells [3]) [pM] | CD69 on CD4 T cells, U937 targets, EC50 (human CLL-1 on cells [3]) [pM] | CD69 on CD8 T cells, U937 targets, EC50 (human CLL-1 on cells [3]) [pM] | U937 cell lysis, EC50 (human CLL-1 on cells [3]) [pM] | specific lysis of HL-60, PBMC donor ABL06, EC50 (human CLL-1 on cells [4]) [pM] | specific lysis of HL-60, PBMC donor ABL09, EC50 (human CLL-1 on cells [4]) [pM] | specific lysis of HL-60, PBMC donor ABL10, EC50 (human CLL-1 on cells [4]) [pM] | specific lysis of HL-60, PBMC donor ABL15, EC50 (human CLL-1 on cells [4]) [pM] | specific lysis of HL-60, PBMC donor ABL16, EC50 (human CLL-1 on cells [4]) [pM] | specific lysis of HL-60, PBMC donor ABL17, EC50 (human CLL-1 on cells [4]) [pM] | specific lysis of HL-60, PBMC donor ABL18, EC50 (human CLL-1 on cells [4]) [pM] | specific lysis of HL-60, PBMC donor ABL19, EC50 (human CLL-1 on cells [4]) [pM] | other results
B1 | 40 | 16 | 1.94 | 2.09 | 0.8 | 0.57 | 0.97 | 1.23 | 1.1 | 0.61 | ~0.5 | 0.15 | 5.07 | 1.26 | 0.97 | 3.04 | 7.01 | 16.6 | 9.43 | 8.18 | specific lysis of U937, PBMC donor ABL06, EC50 (human CLL-1 on cells [4]): 0.57 pM; specific lysis of U937, PBMC donor ABL09, EC50 (human CLL-1 on cells [4]): 0.08 pM; specific lysis of U937, PBMC donor ABL10, EC50 (human CLL-1 on cells [4]): 0.15 pM; specific lysis of U937, PBMC donor ABL15, EC50 (human CLL-1 on cells [4]): 0.04 pM; specific lysis of U937, PBMC donor ABL16, EC50 (human CLL-1 on cells [4]): 0.03 pM; specific lysis of U937, PBMC donor ABL17, EC50 (human CLL-1 on cells [4]): 1.69 pM; specific lysis of U937, PBMC donor ABL18, EC50 (human CLL-1 on cells [4]): 3.05 pM; specific lysis of U937, PBMC donor ABL19, EC50 (human CLL-1 on cells [4]): 0.39 pM; EC50 (human CLL-1 on cells [5]): 250 pM; EC50 (human CLL-1 on cells [6]): 90 pM
B2 | 30 | 16 | 1.15 | 1.09 | 0.54 | 0.36 | 0.86 | 0.39 | 0.3 | 0.21 | 0.14 | 0.05 | 4.42 | 1.27 | 0.86 | 3.16 | 5.14 | 5.85 | 3.97 | 9.09 | specific lysis of U937, PBMC donor ABL06, EC50 (human CLL-1 on cells [4]): 0.54 pM; specific lysis of U937, PBMC donor ABL09, EC50 (human CLL-1 on cells [4]): 0.13 pM; specific lysis of U937, PBMC donor ABL10, EC50 (human CLL-1 on cells [4]): 0.05 pM; specific lysis of U937, PBMC donor ABL15, EC50 (human CLL-1 on cells [4]): 0.16 pM; specific lysis of U937, PBMC donor ABL16, EC50 (human CLL-1 on cells [4]): 0.05 pM; specific lysis of U937, PBMC donor ABL17, EC50 (human CLL-1 on cells [4]): 1.1 pM; specific lysis of U937, PBMC donor ABL18, EC50 (human CLL-1 on cells [4]): 1.63 pM; specific lysis of U937, PBMC donor ABL19, EC50 (human CLL-1 on cells [4]): 0.32 pM; EC50 (human CLL-1 on cells [5]): 230 pM; EC50 (human CLL-1 on cells [6]): 90 pM
